Source: patent publication US20170058042A1 (Genentech, published 2017)
Positions count from the first letter of the chain named.

Columns and labels:
[1] = biological target: T1, human Ly6E (native, in human tumor cells, xenograft tumors and human tissues) (human, UniProt Q16553 21-101); assay: cell-based or functional assay
T1 sequence: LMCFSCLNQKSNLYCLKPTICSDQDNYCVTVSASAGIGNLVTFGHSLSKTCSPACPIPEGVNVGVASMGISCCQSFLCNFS

[2] = biological target: T2, cynomolgus monkey Ly6E (native, in cynomolgus monkey tissues) (cynomolgus monkey, UniProt Q16553 21-101 (human entry)); assay: IHC on normal cynomolgus monkey tissues
T2 construct: Endogenous protein in normal cynomolgus monkey tissue sections (IHC); also called cyno Ly6E
T2 chain: T1 sequence with A33T, I57L, V61I

B1: humanized anti-Ly6E (hu9B12 v12) ADC (MC-vc-PAB-MMAE) (antibody, V domains shown)
VH: EVQLVESGPALVKPTQTLTLTCTVSGFSLTGYSVNWIRQPPGKALEWLGMIWGDGSTDYNSALKSRLTISKDTSKNQVVLTMTNMDPVDTATYYCARDYYFNYASWFAYWGQGTLVTVSS
VL: DIQMTQSPSSLSASVGDRVTITCSASQGISNYLNWYQQKPGKTVKLLIYYTSNLHSGVPSRFSGSGSGTDYTLTISSLQPEDFATYYCQQYSELPWTFGQGTKVEIK
[1]
  EC50 (cell killing, CellTiter-Glo, HCC1569 X2 cells, 5 days): 4 nM

B2: rabbit anti-Ly6E antibody clone GEN-93-8-1 (antibody, V domains shown)
VH: QSVEESGGRLVTPGTPLTLTCATSGFSLSIYDMTWVRQAPGKGLEWIGVIYTSGGAYYANWAKGRFTISRTSTTVDLRMTSPTTEDTATYFCVRNWAHGSDLWGQGTLVTVSS
VL: DPVVTQTPSSASAAVGGTVSISCQSSQSVYNNNYLGWYQQKPGQPPKLLIYDASKLASGVPSRFKASGSGTQFALTISDLECDDAATYYCVGGYPGSLNVFGGGTEVVVK
notes: Rabbit monoclonal IgG; also called antibody GEN-93-8-1
[2]
  binding result: binds
